Laboratory results taken from US20120231005A1 (Merck Sharp & Dohme, published 2012).
Numbering of substitutions follows the chain as printed.

B1: AX1DG IgG2 (antibody, V domains shown)
VH: EVQLLESGGGLVQPGGSLRLSCKASGFTFTSYYMHWVRQAPGKGLEWIGRINPDSGSTKYNEKFKGRATISRDNSKNTLYLQMNSLRAEDTAVYYCARGGRLSWDFDVWGQGTLVTVSS
VL: DIQMTQSPSSLSASVGDRVTITCRASQDISRYLAWYQQKPGKAPKLLIYAASSLQSGVPSRFSGSGSGTDFTLTISSLQPEDFATYYCAAYDYSLGGYVFGGGTKVEIK
notes: IgG2; also called AXIDG
B2: AX9 IgG2 (antibody)
heavy: EVQLLESGGGLVQPGGSLRLSCKASGYTFSSYWMHWVRQAPGKGLEWIGRIDPYNGGTKYNEKFKGKATISRDNSKNTLYLQMNSLRAEDTAVYYCARYGYYLGSYAMDYWGQGTLVTVSSASTKGPSVFPLAPCSRSTSESTAALGCLVKDYFPEPVTVSWNSGALTSGVHTFPAVLQSSGLYSLSSVVTVPSSNFGTQTYTCNVDHKPSNTKVDKTVERKCCVECPPCPAPPVAGPSVFLFPPKPKDTLMISRTPEVTCVVVDVSHEDPEVQFNWYVDGVEVHNAKTKPREEQFNSTFRVVSVLTVVHQDWLNGKEYKCKVSNKGLPAPIEKTISKTKGQPREPQVYTLPPSREEMTKNQVSLTCLVKGFYPSDIAVEWESNGQPENNYKTTPPMLDSDGSFFLYSKLTVDKSRWQQGNVFSCSVMHEALHNHYTQKSLSLSPGK
light: DIQMTQSPSSLSASVGDRVTITCRASQDVSKYLAWYQQKPGKAPKLLIYAASSLQSGVPSRFSGSGSGTDFTLTISSLQPEDFATYYCQVYDSSPNAYVFGGGTKVEIKRTVAAPSVFIFPPSDEQLKSGTASVVCLLNNFYPREAKVQWKVDNALQSGNSQESVTEQDSKDSTYSLSSTLTLSKADYEKHKVYACEVTHQGLSSPVTKSFNRGEC
B3: AX1 IgG2 (antibody)
heavy: EVQLLESGGGLVQPGGSLRLSCKASGFTFTSYYMHWVRQAPGKGLEWIGRINPDSGSTKYNEKFKGRATISRDNSKNTLYLQMNSLRAEDTAVYYCARGGRLSWDFDVWGQGTLVTVSSASTKGPSVFPLAPCSRSTSESTAALGCLVKDYFPEPVTVSWNSGALTSGVHTFPAVLQSSGLYSLSSVVTVPSSNFGTQTYTCNVDHKPSNTKVDKTVERKCCVECPPCPAPPVAGPSVFLFPPKPKDTLMISRTPEVTCVVVDVSHEDPEVQFNWYVDGVEVHNAKTKPREEQFNSTFRVVSVLTVVHQDWLNGKEYKCKVSNKGLPAPIEKTISKTKGQPREPQVYTLPPSREEMTKNQVSLTCLVKGFYPSDIAVEWESNGQPENNYKTTPPMLDSDGSFFLYSKLTVDKSRWQQGNVFSCSVMHEALHNHYTQKSLSLSPGK
light: B2 light with V29I, K31R, Q89A, V90A, S93Y, P95L, N96G, A97G, G102D
notes: Made in HEK293 cells or in glycoengineered Pichia
B4: AX191 IgG2 (antibody)
heavy: B2 heavy
light: B2 light with V29I, V90A, S93Y, P95S, N96S
notes: IgG2
B5: AX189 IgG2 (antibody)
heavy: B2 heavy
light: B2 light with K31R, A34T, V90A, S93Y, P95L, N96S, A97G
notes: the leaderless entry is used
B6: AX188 IgG2 (antibody, V domains shown)
VH: EVQLLESGGGLVQPGGSLRLSCKASGYTFSSYWMHWVRQAPGKGLEWIGRIDPYNGGTKYNEKFKGKATISRDNSKNTLYLQMNSLRAEDTAVYYCARYGYYLGSYAMDYWGQGTLVTVSS
VL: DIQMTQSPSSLSASVGDRVTITCRASQSVSRYLAWYQQKPGKAPKLLIYAASSLQSGVPSRFSGSGSGTDFTLTISSLQPEDFATYYCEAYDYSSGPWVFGGGTKVEIKR
notes: IgG2
B7: AX114 IgG2 (antibody, V domains shown)
VH: EVQLLESGGGLVQPGGSLRLSCKASGYTFSSYGMYWVRQAPGKGLEWIGWIDPGSGGTKYNEKFKGKATISRDNSKNTLYLQMNSLRAEDTAVYYCARERYGYYFDYWGQGTLVTVSS
VL: EIVLTQSPATLSLSPGERATITCRASQYVGTYLNWYQQKPGQAPRLLIYDASNRATGIPARFSGSGSGTDFTLTISSLEPEDFAVYYCQVWDSSPPVAFGGGTKVEIK
B8: AX132 IgG2 (antibody, from another filing, V domains shown)
VH: B7 VH
VL: EIVLTQSPATLSLSPGERATITCRASQYVGSYLNWYQQKPGQAPRLLIYDASNRATGIPARFSGSGSGTDFTLTISSLEPEDFAVYYCQVWDSSPPVVFGGGTKVEIKR
B9: AX132 IgG2 (antibody, V domains shown)
VH: B7 VH
VL: B7 VL with T31S, A98V
B10: AX9 IgG1 (antibody, V domains shown)
VH: B6 VH
VL: B1 VL with I29V, R31K, A89Q, A90V, Y93S, L95P, G96N, G97A

Each binder was assayed against T1, human PCSK9 (human, UniProt Q8NBP7 31-692, limits assumed) (assay: SPR (Biacore); IgG captured on anti-human IgG, PCSK9 injected).
T1 construct: It carried an AlexaFluor647 label in the TR-FRET assay only; also called hPCSK9; wild type human PCSK9
Experimental: (§1) The affinities of those IgG molecules were also measured by Biacore assay. Briefly, anti-human IgG monoclonal antibody form Human Antibody Capture Kit provided by Biacore was immobilized on CM5 chips at a level of 8000 to 10000 RU. […] After each round injection, the sensor chip surface was regenerated by 30 second injection of 3M Magnesium Chloride.

T1 sequence (Q8NBP7 31-692 limits assumed): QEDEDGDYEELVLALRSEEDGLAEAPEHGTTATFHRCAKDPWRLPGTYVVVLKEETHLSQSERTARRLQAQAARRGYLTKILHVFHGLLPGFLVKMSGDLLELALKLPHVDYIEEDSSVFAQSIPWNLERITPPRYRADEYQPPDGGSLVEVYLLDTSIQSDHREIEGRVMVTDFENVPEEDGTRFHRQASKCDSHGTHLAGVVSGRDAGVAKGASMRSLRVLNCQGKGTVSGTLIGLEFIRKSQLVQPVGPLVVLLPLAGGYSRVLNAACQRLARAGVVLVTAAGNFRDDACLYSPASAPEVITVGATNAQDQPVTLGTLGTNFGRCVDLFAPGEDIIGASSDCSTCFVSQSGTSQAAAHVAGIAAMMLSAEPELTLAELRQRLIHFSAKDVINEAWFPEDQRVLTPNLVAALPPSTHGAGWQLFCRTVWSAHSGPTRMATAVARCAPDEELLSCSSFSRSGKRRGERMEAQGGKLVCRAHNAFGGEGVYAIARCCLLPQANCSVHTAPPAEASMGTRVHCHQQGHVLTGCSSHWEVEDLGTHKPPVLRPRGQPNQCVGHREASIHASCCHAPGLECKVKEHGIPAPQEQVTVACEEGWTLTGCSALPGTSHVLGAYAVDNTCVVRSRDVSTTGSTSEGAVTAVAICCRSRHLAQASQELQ

In order of falling Kd:
1. B2  20.6 nM
2. B3  5.75 nM
3. B1  4.61 nM
4. B5  1.84 nM
5. B6  0.873 nM
6. B4  0.846 nM

Each binder was assayed against rhesus PCSK9 (rhesus) (assay: affinity table, IgG2 (Biacore)).

In order of falling Kd:
1. B7  11.6 nM
2. B2  8.82 nM
3. B3  8.61 nM
4. B1  8.1 nM
5. B8  2.59 nM
6. B5  1.24 nM

The binders below were run against rhesus PCSK9 (rhesus) (assay: cell-based or functional assay).

In order of rising IgG IC50 (nM), inhibition of PCSK9 on LDL uptake (Exopolar assay):
1. B4  6.6 nM
2. B5  9 nM
3. B3  11.2 nM
4. B6  18.7 nM
5. B2  28.6 nM

These binders were tested against T1, human PCSK9 (assay: TR-FRET; antibody titrated against 10 nM AF647-PCSK9 and about 4 nM Eu-LDLR ectodomain).
Experimental: After at least 90 minutes of equilibration, samples were read in a Rubystar reader (BMG Corp.) using 20 flashes per well, a 50 μsec integration delay, and a 200 μsec total integration time.

In order of falling IC50:
1. B5  6.4 nM
2. B2  4.1 nM
3. B4  3 nM
4. B3  1 nM

What follows are binders tested against T2, mouse PCSK9 (mouse, UniProt Q80W65 35-694, limits assumed) (assay: affinity table, IgG2 (Biacore)).
T2 construct: also called Mouse PCSK9 9
Experimental: as §1

T2 sequence (Q80W65 35-694 limits assumed): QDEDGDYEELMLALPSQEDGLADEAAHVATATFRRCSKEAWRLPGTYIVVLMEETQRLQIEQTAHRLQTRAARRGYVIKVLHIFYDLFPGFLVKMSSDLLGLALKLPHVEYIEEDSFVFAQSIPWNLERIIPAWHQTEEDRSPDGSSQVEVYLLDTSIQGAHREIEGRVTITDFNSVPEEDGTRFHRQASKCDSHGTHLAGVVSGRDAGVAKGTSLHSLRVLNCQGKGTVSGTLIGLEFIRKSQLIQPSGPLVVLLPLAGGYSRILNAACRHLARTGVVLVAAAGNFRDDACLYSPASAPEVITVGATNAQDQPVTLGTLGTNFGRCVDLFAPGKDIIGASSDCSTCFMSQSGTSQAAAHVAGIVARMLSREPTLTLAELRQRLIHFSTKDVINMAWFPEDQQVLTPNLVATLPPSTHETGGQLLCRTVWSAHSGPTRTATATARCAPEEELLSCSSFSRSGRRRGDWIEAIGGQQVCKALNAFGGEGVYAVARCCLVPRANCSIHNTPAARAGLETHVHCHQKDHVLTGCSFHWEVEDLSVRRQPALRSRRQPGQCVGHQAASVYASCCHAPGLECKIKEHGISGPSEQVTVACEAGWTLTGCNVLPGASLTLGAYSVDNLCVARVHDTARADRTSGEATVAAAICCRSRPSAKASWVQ

B1: no binding.
B2: no binding.
B3: no binding.

In order of rising Kd:
1. B9  2.76 nM
2. B7  11.2 nM

What follows are binders tested against T1, human PCSK9 (assay: affinity table, IgG2 (Biacore)).
Experimental: as §1

In order of falling Kd:
1. B7  24 nM
2. B2  20.6 nM
3. B9  6.16 nM
4. B3  5.75 nM
5. B1  4.61 nM
6. B5  1.84 nM

The binders below were run against T3, rat PCSK9 (rat, UniProt P59996 31-691, limits assumed) (assay: affinity table, IgG2 (Biacore)).
T3 construct: also called rPCSK9
Experimental: as §1

T3 sequence (P59996 31-691 limits assumed): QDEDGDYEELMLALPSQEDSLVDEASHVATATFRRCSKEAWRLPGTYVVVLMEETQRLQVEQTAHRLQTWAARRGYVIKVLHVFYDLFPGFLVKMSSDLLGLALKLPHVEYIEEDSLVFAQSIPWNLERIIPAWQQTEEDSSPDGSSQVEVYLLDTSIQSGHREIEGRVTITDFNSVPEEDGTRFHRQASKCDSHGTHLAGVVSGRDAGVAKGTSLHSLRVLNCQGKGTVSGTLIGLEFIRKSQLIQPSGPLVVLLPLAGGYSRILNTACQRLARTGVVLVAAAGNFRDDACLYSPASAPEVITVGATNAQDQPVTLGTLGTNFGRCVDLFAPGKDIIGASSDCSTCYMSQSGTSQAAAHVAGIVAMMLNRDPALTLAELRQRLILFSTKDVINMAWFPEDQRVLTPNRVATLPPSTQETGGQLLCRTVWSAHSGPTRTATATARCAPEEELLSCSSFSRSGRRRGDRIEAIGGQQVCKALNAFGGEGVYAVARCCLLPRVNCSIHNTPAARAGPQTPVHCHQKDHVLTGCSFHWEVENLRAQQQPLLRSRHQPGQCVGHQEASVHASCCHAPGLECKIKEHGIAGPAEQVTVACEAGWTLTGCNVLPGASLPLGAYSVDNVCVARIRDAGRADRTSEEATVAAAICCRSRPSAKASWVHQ

B1: no binding.
B2: no binding.
B3: no binding.

B9 showed a Kd of 100 nM.

These binders were tested against rhesus PCSK9 (rhesus, UniProt A8T644 31-692 (Pan troglodytes entry), limits assumed) (assay: cell-based or functional assay).

B10 was tested, and the “IgG IC50 (nM), inhibition of PCSK9 on LDL uptake (Exopolar assay)” value was 30.3 nM.

What follows are binders tested against T1, human PCSK9 (assay: cell-based or functional assay).

In order of falling “IgG IC50 (nM), inhibition of PCSK9 on LDL uptake (Exopolar assay)” value:
1. B2  25.5 nM
2. B6  24.8 nM
3. B10  10.7 nM
4. B5  9.4 nM
5. B4  8.7 nM
6. B1  7.4 nM
7. B3  7 nM

What follows are binders tested against T4, human FcRn (human, UniProt P55899 24-297; P61769 21-119, limits assumed) (assay: Biacore; human FcRn immobilised, 100 nM mAb bound at pH 6.0, read 5 s into dissociation at pH 7.3).
T4 construct: Beta-2-microglobulin is not mentioned for the purified protein; also called human FeRn
Experimental: The neutral pH dissociation of mAbs from human FeRn was measured by SPR using a Biacore T-100 instrument. Briefly, purified FeRn protein was immobilized onto a Biacore CM5 biosensor chip and PBSP (50 mM NaPO4, 150 mM NaCl and 0.05% (v/v) Surfactant 20) pH 7.3 was used as running buffer. The mAbs were diluted with PBSP pH 6.0 to 100 nM, allowed to bind FcRn for 3 minutes to reach equilibrium and followed by 1 minute of dissociation in pH 7.3 running buffer. A report point (Stability) was inserted at 5 seconds after the end of mAb binding and the “% bound” was calculated as RUStability/RUBinding (%).

T4 sequence (P55899 24-297 limits assumed, form in doubt, chain 1 of 2): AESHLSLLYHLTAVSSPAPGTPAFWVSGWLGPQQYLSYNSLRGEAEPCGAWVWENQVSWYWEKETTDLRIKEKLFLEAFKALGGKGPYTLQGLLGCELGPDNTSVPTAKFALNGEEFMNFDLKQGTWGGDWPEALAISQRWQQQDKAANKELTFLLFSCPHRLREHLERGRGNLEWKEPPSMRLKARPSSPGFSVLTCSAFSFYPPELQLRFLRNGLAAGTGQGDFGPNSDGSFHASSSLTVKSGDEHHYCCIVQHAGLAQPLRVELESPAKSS
T4 sequence (P61769 21-119 limits assumed, form in doubt, chain 2 of 2): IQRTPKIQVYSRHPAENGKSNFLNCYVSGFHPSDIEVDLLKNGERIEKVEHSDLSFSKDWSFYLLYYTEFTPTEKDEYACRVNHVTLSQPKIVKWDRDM

In order of falling “% bound (RUStability/RUBinding)” value:
1. B3  5%
2. B4  1.1%
3. B2  1%
4. B5  0.9%

Biological target: T1, human PCSK9
Assay: affinity table, IgG2 (Biacore)
Remark: another data set of the same source
Experimental: as §1

In order of rising Kd:
1. B1  4.61 nM
2. B3  5.75 nM

The binders below were run against rhesus PCSK9 (rhesus) (assay: SPR (Biacore); IgG captured on anti-human IgG, PCSK9 injected).

In order of falling Kd:
1. B2  8.82 nM
2. B3  4.2 nM
3. B1  3.6 nM
4. B5  1.24 nM
5. B4  0.625 nM
6. B6  0.454 nM
